We go through four molecules from patent publication US11319551B2, “Methods and compositions for PPO herbicide tolerance in plants” (Monsanto Technology LLC, priority 2015, dated 2022).

In experiment [1] the test system is transgenic soybean plants. Briefly: S-3100 herbicide injury of R0 transgenic soybean plants at eleven weeks. It counts as in vivo. As to conditions: for tolerance to the PPO herbicide, R0 plants at eleven weeks: S-3100, injury rating compared with non-transgenic control (30% or above); for Tolerance score to S-3100 at 11 weeks (herbicide injury rating): R0 plants, seven days after treatment. Here is the method:
(§1) The microbial HemY PPO enzymes were expressed in transgenic soybean plants, and the transgenic plants were analyzed for PPO herbicide tolerance. […] For plant transformation, the nucleotide sequences encoding the HemY PPO enzymes were codon optimized for dicot expression. This permitted the side-by-side comparison of the seven different HemY PPO enzymes with thirty-nine different targeting peptides using the same promoter and 3′UTR elements for gene expression
(§2) The plant transformation constructs were used to transform soybean excised embryos (germplasm A3555) using A. tumefaciens and standard methods known in the art. Four hundred explants were inoculated for each construct resulting in twelve containers per construct. A sterile PPO herbicide solution was used for herbicide tolerance testing. The herbicide solution consisted of 0.3 g of S-3100 in crop oil concentrate (5.0 mL) and 495 mL of deionized water. This was filtered through a 0.45 micron Nalgene® Rapid-Flow™ Tissue Culture Filter Unit and Surfactant-Free Cellulose Acetate membrane filter unit (VWR, Radnor, Pa., USA). The resulting sterile solution was shaken before application.
Plants in the non-sprayed containers corresponding to constructs having a high passing score of 2 and a few fails as negative controls were transplanted at approximately 7 weeks post transformation. The R0 plants were grown in a greenhouse under long-day nursery conditions (18 hr light at 80° F. then 6 hr dark at 74° F.) for approximately four weeks. At eleven weeks, the R0 plants were sprayed with two passes of the same herbicide solution (0.3 g of S-3100) described above. Herbicide injury ratings were collected seven days after treatment. Any injury rating of 30% or above was equivalent to non-transgenic soybean injury ratings. The results of the herbicide tolerance application at eleven weeks to the R0 plants are presented in Table 6, where n.d. indicates the analysis was not conducted.

In experiment [2] the test system is transgenic soybean plants. Briefly: S-3100 tolerance of transformed soybean plantlets at five weeks. It counts as in vivo. Also noted: key to Tolerance score to S-3100 at 5 weeks: 0 for poor tolerance, high damage, low green coloration; 1 for some tolerance, average damage, moderate green coloration; 2 for good tolerance, low damage, high green coloration. As to conditions: for tolerance to the PPO herbicide in high-throughput screening at five weeks: S-3100, over the constructs with different transit peptides; for Tolerance score to S-3100 at 5 weeks: day four post application. Here is the method:
as §1, §2
At five weeks post-transformation, four of the twelve plant containers per construct were sprayed with two passes of the sterile PPO herbicide solution. The treated plantlets were then enclosed in the container and received at least 15 hours of light exposure post spray each day for four days. At the end of day four post application of S-3100, the treated plantlets were photographed and scored on a visual scale of green coloration (green coloration was representative of healthy photosynthetic plant tissue as compared to photo-bleached tissue) versus damage. The scoring values were 0 for poor tolerance, high damage, low green coloration; 1 for some tolerance, average damage, moderate green coloration; and 2 for good tolerance, low damage, high green coloration. The results of herbicide application of S-3100 at five weeks is presented in Table 5, where n.d. indicates the analysis was not conducted.

Experiment [3] has as its system hemG knockout E. coli strain. The class given is cell-based.
Where [4] appears, read: acifluorfen, flumioxazin, lactofen, or fomesafen, saturating amount.

Where two headings read alike, the source gives them in different places.

B1: R2N70: microbial HemY protoporphyrinogen oxidase, SEQ ID NO:3 (protein, listed as Bacillus subtilis)
chain: MSDGKKHVVIIGGGITGLAAAFYMEKEIKEKNLPLELTLVEASPRVGGKIQTVKKDGYIIERGPDSFLERKKSAPQLVKDLGLEHLLVNNATGQSYVLVNRTLHPMPKGAVMGIPTKIAPFVSTGLFSLSGKARAAMDFILPASKTKDDQSLGEFFRRRVGDEVVENLIEPLLSGIYAGDIDKLSLMSTFPQFYQTEQKHRSLILGMKKTRPQGSGQQLTAKKQGQFQTLSTGLQTLVEEIEKQLKLTKVYKGTKVTKLSHSGSGYSLELDNGVTLDADSVIVTAPHKAAAGMLSELPAISHLKNMHSTSVANVALGFPEGSVQMEHEGTGFVISRNSDFAITACTWTNKKWPHAAPEGKTLLRAYVGKAGDESIVDLSDNDIINIVLEDLKKVMNINGEPEMTCVTRWHESMPQYHVGHKQRIKELREALASAYPGVYMTGASFEGVGIPDCIDQGKAAVSDALTYLFS
B1: the “tolerance to the PPO herbicide, R0 plants at eleven weeks” value in experiment [1] is “did not provide tolerance”. The “Tolerance score to S-3100 at 11 weeks (herbicide injury rating)” value in experiment [1] (targeting peptide TP2) came out at 30%. Further, in experiment [2], the “tolerance to the PPO herbicide in high-throughput screening at five weeks” value is “provided tolerance”. Also, the “Tolerance score to S-3100 at 5 weeks” value in experiment [2] (targeting peptide TP2) came to 2; in experiment [2] (targeting peptide TP3), 1; in experiment [2] (targeting peptide TP4) it was 0; in experiment [2] (targeting peptide TP6), 0; in experiment [2] (targeting peptide TP8), 0; in experiment [2] (targeting peptide TP16) it was 0. In addition, the “Tolerance score to S-3100 at 5 weeks” value in experiment [2] (targeting peptide TP21) stood at 0; in experiment [2] (targeting peptide TP31), 1; in experiment [2] (targeting peptide TP33) it was 0. The “growth rate of hemG knockout E. coli strain in presence of PPO herbicide” value (from here on “growth rate”) in experiment [3] (acifluorfen and S-3100) is on record as “slower”. Moreover, the “tolerance to acifluorfen and S-3100 compared with strain containing R2N30 or R2N40” value in experiment [3] (acifluorfen and S-3100) is “much better”.

B2: A. tuberculatus PPO: wild-type protoporphyrinogen oxidase from Amaranthus tuberculatus (WH), SEQ ID NO:80, negative control expressed in E. coli (protein, listed as Amaranthus tuberculatus)
chain: MGNISEREEPTSAKRVAVVGAGVSGLAAAYKLKSHGLSVTLFEADSRAGGKLKTVKKDGFIWDEGANTMTESEAEVSSLIDDLGLREKQQLPISQNKRYIARDGLPVLLPSNPAALLTSNILSAKSKLQIMLEPFLWRKHNATELSDEHVQESVGEFFERHFGKEFVDYVIDPFVAGTCGGDPQSLSMHHTFPEVWNIEKRFGSVFAGLIQSTLLSKKEKGGENASIKKPRVRGSFSFQGGMQTLVDTMCKQLGEDELKLQCEVLSLSYNQKGIPSLGNWSVSSMSNNTSEDQSYDAVVVTAPIRNVKEMKIMKFGNPFSLDFIPEVTYVPLSVMITAFKKDKVKRPLEGFGVLIPSKEQHNGLKTLGTLFSSMMFPDRAPSDMCLFTTFVGGSRNRKLANASTDELKQIVSSDLQQLLGTEDEPSFVNHLFWSNAFPLYGHNYDSVLRAIDKMEKDLPGFFYAGNHKGGLSVGKAMASGCKAAELVISYLDSHIYVKMDEKTA
On to B2, for which the “sensitivity to PPO herbicides (negative control)” value in experiment [3] (all of the PPO herbicides) is reported as “sensitive to all of the PPO herbicides”.

B3: R1 N311: microbial HemY protoporphyrinogen oxidase, SEQ ID NO:16 (protein, listed as Bacillus atrophaeus)
chain: MSDGKKHLVIIGGGITGLASAFYMEKEIREKNLPLSVTLVEASPRVGGKIQTARKDGYIIERGPDSFLERKKSAPELVEDLGLEHLLVNNATGQSYVLVNETLHPMPKGAVMGIPTKIAPFMSTGLFSFSGKARAAMDFVLPASKPKEDQSLGEFFRRRVGDEVVENLIEPLLSGIYAGDIDRLSLMSTFPQFYQTEQKHRSLILGMKKTRPQGSGQRLTAKKQGQFQTLKTGLQTLVEELENQLKLTKVYKGTKVTNISRGEKGCSIALDNGMTLDADAAIVTSPHKSAAGMFPDLPAVSQLKDMHSTSVANVALGFPQEAVQMEHEGTGFVISRNSDFSITACTWTNKKWPHSAPEGKTLLRAYVGKAGDESIVELSDNEIIKIVLEDLKKVMKIKGEPEMTCVTRWNESMPQYHVGHKQRIKKVREALAASYPGVYMTGASFEGVGIPDCIDQGKSAVSDVLAYLFG
Consider B3, for which the “growth rate” value in experiment [3] (setting [4]) is reported as “did not grow”.

B4: R1N333: microbial HemY PPO, SEQ ID NO:17 in bacterial assay; truncated SEQ ID NO:21 in soybean (protein, listed as Bacillus atrophaeus)
chain: MSDGKKHLVIIGGGITGLASAFYMEKEIREKNLPLSVTLVEASPRVGGKIQTARKDGYIIERGPDSFLERKKSAPELVEDLGLEHLLVNNATGQSYVLVNETLHPMPKGAVMGIPTKIAPFMSTRLFSFSGKARAAMDFVLPASKPKEDQSLGEFFRRRVGDEVVENLIEPLLSGIYAGDIDRLSLMSTFPQFYQTEQKHRSLILGMKKTRPQGSGQQLTAKKQGQFQTLKTGLQTLVEELENQLKLTKVYKGTKVTNISRGEKGCSIALDNGMTLDADAAIVTSPHKSAAGMFPDLPAVSQLKDMHSTSVANVALGFPQEAVQMEHEGTGFVISRNSDFSITACTWTNKKWPHSAPEGKTLLRAYVGKAGDESIVELSDNEIIKIVLEDLKKVMKIKGEPEMTCVTRWNESMPQYHVGHKQRIKKVREALAASYPGVYMTGASFEGVGIPDCIDQGKSAVSDVLAYLFE
With B4, in experiment [1], the “tolerance to the PPO herbicide, R0 plants at eleven weeks” value is “did not provide tolerance”. In addition, the “Tolerance score to S-3100 at 11 weeks (herbicide injury rating)” value in experiment [1] (targeting peptide TP8), in experiment [1] (targeting peptide TP9) and in experiment [1] (targeting peptide TP14) was 35% each time. Further, the “tolerance to the PPO herbicide in high-throughput screening at five weeks” value in experiment [2] is “did not provide tolerance”. Besides, the “Tolerance score to S-3100 at 5 weeks” value in experiment [2] (targeting peptide TP2), in experiment [2] (targeting peptide TP3), in experiment [2] (targeting peptide TP4), in experiment [2] (targeting peptide TP6), in experiment [2] (targeting peptide TP7) and in experiment [2] (targeting peptide TP8) was 0 each time. The “Tolerance score to S-3100 at 5 weeks” value in experiment [2] (targeting peptide TP9) turned out to be 1; in experiment [2] (targeting peptide TP11), 0; in experiment [2] (targeting peptide TP12) it was 1; in experiment [2] (targeting peptide TP13), 0; in experiment [2] (targeting peptide TP14) it was 0; in experiment [2] (targeting peptide TP15), 0. Besides, the “Tolerance score to S-3100 at 5 weeks” value in experiment [2] (targeting peptide TP16), in experiment [2] (targeting peptide TP17), in experiment [2] (targeting peptide TP18), in experiment [2] (targeting peptide TP19), in experiment [2] (targeting peptide TP21) and in experiment [2] (targeting peptide TP22) was 0 in each case. In addition, the “Tolerance score to S-3100 at 5 weeks” value came out at 1 in experiment [2] (targeting peptide TP23); 0 in experiment [2] (targeting peptide TP24); 0 in experiment [2] (targeting peptide TP25); 0 in experiment [2] (targeting peptide TP26); 1 in experiment [2] (targeting peptide TP27); 0 in experiment [2] (targeting peptide TP28). The “Tolerance score to S-3100 at 5 weeks” value in experiment [2] (targeting peptide TP29) was 1; in experiment [2] (targeting peptide TP30) it was 0; in experiment [2] (targeting peptide TP31) it was 1; in experiment [2] (targeting peptide TP32), 0; in experiment [2] (targeting peptide TP33), 0; in experiment [2] (targeting peptide TP34), 1. The “Tolerance score to S-3100 at 5 weeks” value in experiment [2] (targeting peptide TP36) was 1. Besides, the “growth rate” value in experiment [3] (setting [4]) is on record as “did not grow”.
